Data as given in article PMC12041282.

Biological target: ectodomain of the SFTSV Gn glycoprotein (amino acids 20-453), Gn-his (SFTSV)
Assay: SPR

Recombinant human LRP1 CLII-Fc (Fc fusion)
Kd: 16.8 nM
